Reference: publication PMC11640301, “Escherichia coli tRNA (Gm18) methyltransferase (TrmH) requires the correct localization of its methylation site (G18) in the D-loop for efficient methylation” (Journal of Biochemistry, 2023)
Substitutions are numbered along the chain they refer to. In names and notes the source's numbering stands.

Experiments:
[1] = target: E. coli TrmH (without a tag sequence) (Escherichia coli, UniProt P0AGJ2); test: radiometric filter assay, methyl transfer to tRNA transcript; type: biochemical; details: methyl donor; 200 μM SAM, tRNA^SerCGA transcript, pH 7.6, 37 °C; labelled compound
[2] = target: T1, TrmH (tRNA Gm18 methyltransferase) (Thermus thermophilus, UniProt Q5SM16 1-194); test: EMSA; 5 mM Mg-acetate, 400 mM KCl; no SAM listed; tRNA 4.25 uM; 50 mM Tris-HCl pH 7.6, 5 mM Mg-acetate, 6 mM 2-mercaptoethanol, 400 mM KCl, 5% glycerol; room temperature 30 min; 4.25 uM tRNA, 0-17 uM TrmH; 6% native PAGE; details: protein: recombinant; chain copies: 2; label: none; tRNA cloverleaf, long variable region
T1 sequence: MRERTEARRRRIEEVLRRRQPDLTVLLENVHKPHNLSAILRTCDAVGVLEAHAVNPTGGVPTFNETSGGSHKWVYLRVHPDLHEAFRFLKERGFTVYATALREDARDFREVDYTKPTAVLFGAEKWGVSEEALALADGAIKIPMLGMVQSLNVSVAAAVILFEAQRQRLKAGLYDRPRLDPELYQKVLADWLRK

[3] = target: T2, TrmH (tRNA Gm18 methyltransferase) (Escherichia coli HB101 (gene source), UniProt P0AGJ2 1-229); test: EMSA; 5 mM Mg-acetate, 400 mM KCl; no SAM listed; tRNA 4.25 uM, complex at enzyme below 10 uM; slightly weaker than T. thermophilus TrmH; 50 mM Tris-HCl pH 7.6, 5 mM Mg-acetate, 6 mM 2-mercaptoethanol, 400 mM KCl, 5% glycerol; room temperature 30 min; 4.25 uM tRNA, 0-17 uM TrmH; 6% native PAGE; details: protein: recombinant; tags: none (pET30a, untagged); chain copies: 2; label: none; tRNA cloverleaf, long variable region
T2 sequence: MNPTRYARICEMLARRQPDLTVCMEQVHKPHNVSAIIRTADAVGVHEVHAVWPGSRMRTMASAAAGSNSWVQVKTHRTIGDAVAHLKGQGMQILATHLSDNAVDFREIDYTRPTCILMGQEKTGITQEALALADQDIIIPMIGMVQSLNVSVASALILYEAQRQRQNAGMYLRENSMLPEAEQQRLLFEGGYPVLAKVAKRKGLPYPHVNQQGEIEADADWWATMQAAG

[4] = target: the molecule itself; test: crystal structure; E107G TrmH co-crystallised with 2 mM SAM; hanging-drop vapor diffusion, 20°C, 100 mM HEPES-NaOH (pH 7.6), 5% MPD, 10% PEG 6000; space group C2, one E107G-SAM molecule per asymmetric unit; dimer

In the case of `C[S+](CC[C@H](N)C(=O)O)C[C@H]1O[C@@H](n2cnc3c(N)ncnc32)[C@H](O)[C@@H]1O` (stereo partly drawn) [S-adenosyl-L-methionine], the “radiometric filter assay, methyl transfer to tRNA transcript” value [1] is reported as “incorporation of the methyl group from [methyl-^3H]-SAM into E. coli tRNA^SerCGA transcript was monitored”.

B1: tRNASerCGA transcript (structured_RNA)
RNA: GGAGAGAUGCCGGAGCGGCUGAACGGACCGGUCUCGAAAACCGGAGUAGGGGCAACUCUACCGGGGGUUCAAAUCCCCCUCUCUCCGCCA
modifications: none (unmodified transcript)
B1: binds [2]; binds [3].

B2: E. coli TrmH (E107G) mutant, tRNA (Gm18) methyltransferase, with 6x His tag (enzyme, UniProt P0AGJ2 1-229, looked up)
chain: T2 sequence with E107G
notes: TrmH, tRNA (Gm18) 2'-O-methyltransferase of Escherichia coli; trmH gene amplified from E. coli HB101 genomic DNA with primers from the start codon to the stop codon; Glu107 replaced with Gly; No removal of the His tag is described; One molecule per asymmetric unit, so the dimer is formed by crystal symmetry; also called E107G mutant TrmH; E107G-SAM; source: E. coli BL21 (DE3) Rosetta 2, …
With B2 the “stoichiometry N” value [4] was 2.
